For one substance, IC50 results are on record in US20210139559A1.

The assay addresses human VEGF165 ligand (human) (UniProt P15692). The assay can be described thus: serial dilution mixed with 50 pM human VEGF165 in solution, unbound VEGF165 measured by ELISA.

Chain of human VEGF165 ligand (human) (P15692 other isoform, or with tags, fused parts or gaps limits assumed): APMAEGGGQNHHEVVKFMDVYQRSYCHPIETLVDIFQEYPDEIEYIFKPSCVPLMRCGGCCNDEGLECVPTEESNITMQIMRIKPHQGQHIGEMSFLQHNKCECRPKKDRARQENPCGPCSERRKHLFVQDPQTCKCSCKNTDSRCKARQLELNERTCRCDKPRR

Aflibercept (Fc fusion): the IC50 was found to be 9.82 pM.

What is called IC50 is the concentration that gives 50% inhibition. Higher therefore signals weaker potency in that assay.
